Assay results published in patent US6548743B1, “Transgenic plants expressing a dual-specificity MAPK phosphatase and uses thereof” (The General Hospital Corporation, priority 1998, dated 2003).

Experiments:
Arabidopsis plants = assay: Phenotype of transgenic Arabidopsis plants expressing the transgene (35S CaMV promoter); format: in vivo
Description: (§1) Next, we examined the phenotypic modifications of transgenic plants expressing MKP-1 under the control of the 35S CaMV promoter. For these experiments, we introduced the MKP-1 construct into tobacco cultivar SR1 and Arabidopsis plants according to standard Agrobacterium-mediated gene transfer methods. Initiation of flowering in the day-neutral tobacco cultivar SR1 is mainly dependent on the number of leaves found on the plants. These tobacco plants, in general, remain in the vegetative state until approximately twenty leaves have developed. […] Some transformants even initiated flowers after only a few small leaves had developed (FIG. 4). Despite early flowering, these plants were fertile. […] Similar results were obtained when MKP-1 was expressed in Arabidopsis plants.

[1] = system: NPK1-dependent activation of a MAPK and repression of the GH3 promoter; assay: Transient expression in maize protoplasts: reversal of NPK1 effects; format: cell-based; conditions: transfected maize protoplasts, 35S CaMV promoter
Description: A phosphatase domain containing a fragment of the mouse MKP-1 (amino acids 1-314 (SEQ ID NO.: 11); Sun et al., Cell 75: 487-493, 1993) was cloned into the plant expression vector pART7. This expression plasmid was then used for transient expression of MKP-1 in maize protoplasts.

tobacco cultivar SR1 = assay: Phenotype of transgenic tobacco SR1 plants expressing the transgene (35S CaMV promoter); format: in vivo
Description: as §1

tobacco cells = assay: Auxin effect on division and differentiation of transfected tobacco cells; format: cell-based
Experimental: To examine the effects of auxin on cell division and differentiation of cells expressing MKP-1 SEQ ID NO.:10; tobacco cells transfected with the MKP-1 transgene expressed under the control of the 35S CaMV promoter were cultured on a medium containing 0.1 μM or 1 μM NAA. […] Since prevention of MAPK activation by MKP-1 can render plant cells less sensitive to auxin, activation of some MAPK pathways may be crucial in auxin stimulated plant cell proliferation.

B1: MKP-1: dual-specificity MAPK phosphatase; fragment of mouse MKP-1 (amino acids 1-314) expressed from a transgene under the 35S CaMV promoter (protein, UniProt P28563 1-314, looked up, fragment)
chain: MVMEVGILDAGGLRALLREGAAQCLLLDCRSFFAFNAGHIAGSVNVRFSTIVRRRAKGAMGLEHIVPNAELRGRLLAGAYHAVVLLDERSASLDGAKRDGTLALAAGALCREARSTQVFFLQGGYEAFSASCPELCSKQSTPTGLSLPLSTSVPDSAESGCSSCSTPLYDQGGPVEILSFLYLGSAYHASRKDMLDALGITALINVSANCPNHFEGHYQYKSIPVEDNHKADISSWFNEAIDFIDSIKDAGGRVFVHCQAGISRSATICLAYLMRTNRVKLDEAFEFVKQRRSIISPNFSFMGQLLQFESQVLA
Arabidopsis plants; in vivo
  fertility of reproductive organs: fertile
Arabidopsis plants; progenies of several Arabidopsis lines
  inflorescence initiation: initiate the inflorescence stem without producing any rosette leaves
[1]
  effect on NPK1-dependent activation of a MAPK: complete elimination
  effect on repression of the auxin-inducibility of the GH3 promoter by NPK1: complete elimination
Tobacco cultivar SR1; MKP-1 transformed SR1 tobacco, FIG. 2
  number of leaves before flowering compared to wild type: about half
Tobacco cultivar SR1; early flowering transformants
  fertility: fertile
Tobacco cultivar SR1; in vivo
  reduction in the vegetative life span of the plant: ~50%
Tobacco cultivar SR1; primary transgenic SR1 lines vs control plants
  initiation of flowering: initiated flowering earlier than control plants
Tobacco cultivar SR1; transgenic vs wild-type plants
  flower and seed production: more flowers and seeds than the wild-type plants
Tobacco cells; 0.1 μM NAA
  cell division under low auxin: failed to divide
Tobacco cells; 1 μM NAA
  cell phenotype under high auxin: remained green and formed tight calli with differentiated shoot primordia
Tobacco cells; constant concentration of cytokinin, compared with cells transfected with vector alone
  level of auxin required to initiate cell division: 1 μM NAA
